The target in test [1] is T1, Prostate-specific antigen (PSA or kallikrein-related peptidase-3, KLK3), major form of active PSA (isoform … (human, UniProt P07288 25-261)).
T1 construct: prostate-specific antigen (PSA, kallikrein-related peptidase-3, KLK3), human, 28 kDa serine protease; the major enzymatically active form (isoform PSA-B) isolated from seminal fluid; Amine-coupled to a CM5 chip for SPR
Description: SPR; Biacore T100; PSA amine-coupled to a CM5 chip (2000-3900 RU); alpha-chymotrypsin surface as reference, subtracted; peptides 1.2-600 uM flowed in PBS pH 7.4 (6.7 mM PO4, 0.15 M NaCl), 40 ul/min, 25 C, contact 60 s, dissociation 180 s; Steady State Affinity model. The following applies: both partners purified.

Test [2] addresses T1, Prostate-specific antigen (PSA or …). In words: cell-based or functional assay.

Positions of bridges follow the written chain, without caps; N, C: chain ends. No end group written: not given here.

T1 sequence (P07288 25-261): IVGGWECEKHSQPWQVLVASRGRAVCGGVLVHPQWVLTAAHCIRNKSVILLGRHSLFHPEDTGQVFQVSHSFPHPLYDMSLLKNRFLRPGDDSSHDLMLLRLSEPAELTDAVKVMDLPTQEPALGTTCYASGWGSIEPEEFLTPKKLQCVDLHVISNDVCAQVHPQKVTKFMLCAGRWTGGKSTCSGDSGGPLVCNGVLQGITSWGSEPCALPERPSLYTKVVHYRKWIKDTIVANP

B1: 12-amino acid cyclic peptide B2 with C-terminal amidation (B2-NH2) (peptide)
peptide: CVFAHNYDYLVC-NH2
modifications: disulfide 1-12; N-terminus assumed
SMILES: CC(C)C[C@@H]1NC(=O)[C@H](Cc2ccc(O)cc2)NC(=O)[C@H](CC(=O)O)NC(=O)[C@H](Cc2ccc(O)cc2)NC(=O)[C@H](CC(N)=O)NC(=O)[C@H](Cc2c[nH]cn2)NC(=O)[C@H](C)NC(=O)[C@H](Cc2ccccc2)NC(=O)[C@H](C(C)C)NC(=O)[C@@H](N)CSSC[C@@H](C(N)=O)NC(=O)[C@H](C(C)C)NC1=O
notes: cyclic; purity over 95% by HPLC; source: synthetic peptide, bought as custom peptide (AnaSpec, NeoMPS, Biomatik or GenScript)
Turning to B1, the Kd (in general, the concentration at which binding is half-saturated) in test [1] stood at 56.5 µM. In addition, in test [2], the “[peptide]2V: peptide concentration with two-fold stimulation of PSA activity, chromogenic substrate S-2586” value is 3.33 µM and the “[peptide]2V: peptide concentration with two-fold stimulation of PSA activity, fluorogenic substrate 4-morpholinecarbonyl-HSSKLQ-AMC” value was determined as 2.94 µM.
On to CVAYCIEHHCWTC (disulfide 1-13, 5-10) [13-amino acid double cyclic peptide C4], for which, in test [2], the “[peptide]2V: peptide concentration with two-fold stimulation of PSA activity, chromogenic substrate S-2586” value worked out at 1.55 µM and the “[peptide]2V: peptide concentration with two-fold stimulation of PSA activity, fluorogenic substrate 4-morpholinecarbonyl-HSSKLQ-AMC” value turned out to be 1.36 µM.

B2: 12-amino acid cyclic peptide B2 (without C-terminal amidation) (peptide)
peptide: CVFAHNYDYLVC-OH
modifications: disulfide 1-12; N-terminus assumed
SMILES: CC(C)C[C@@H]1NC(=O)[C@H](Cc2ccc(O)cc2)NC(=O)[C@H](CC(=O)O)NC(=O)[C@H](Cc2ccc(O)cc2)NC(=O)[C@H](CC(N)=O)NC(=O)[C@H](Cc2c[nH]cn2)NC(=O)[C@H](C)NC(=O)[C@H](Cc2ccccc2)NC(=O)[C@H](C(C)C)NC(=O)[C@@H](N)CSSC[C@@H](C(=O)O)NC(=O)[C@H](C(C)C)NC1=O
notes: as for B1
Molecule B2 came in with a Kd in test [1] of 73.6 µM.
